Assay results: paper PMC8867601, “The TERB1 MYB domain suppresses telomere erosion in meiotic prophase I”

Assays:
Conditions in all cases: protein: recombinant; tags: none after Ulp1 cleavage of His-Smt3; label: 32P (T4 PNK)
hTERB1-MYB H716R = target: T1, hTERB1-MYB H716R (Homo sapiens, UniProt Q8NA31 666-719, H716R); test: EMSA; 150 nM probe; 50 mM Tris-HCl pH 8.0, 6.5% glycerol, 20 mM NaCl, 5 mM DTT, 150 nM probe, 10 ul, 30 min on ice; 4-20% TBE native gel
T1 sequence: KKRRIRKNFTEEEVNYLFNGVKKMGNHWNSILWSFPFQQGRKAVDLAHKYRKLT

hTERB1-MYB H713D = target: T2, hTERB1-MYB H713D (Homo sapiens, UniProt Q8NA31 666-719, H713D); test: as above
T2 sequence: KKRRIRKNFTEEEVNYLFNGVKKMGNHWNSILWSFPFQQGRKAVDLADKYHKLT

hTERB1-MYB A712K = target: T3, hTERB1-MYB A712K (Homo sapiens, UniProt Q8NA31 666-719, A712K); test: as above
T3 sequence: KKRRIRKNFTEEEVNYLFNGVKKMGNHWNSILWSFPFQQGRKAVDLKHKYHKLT

hTERB1-MYB triple mutant = target: T4, hTERB1-MYB triple mutant (Homo sapiens, UniProt Q8NA31 666-719, A712K;H713D;H716R); test: EMSA; 2-8 uM protein, 150 nM probe; 50 mM Tris-HCl pH 8.0, 6.5% glycerol, 20 mM NaCl, 5 mM DTT, 150 nM probe, 10 ul, 30 min on ice; 4-20% TBE native gel
T4 sequence: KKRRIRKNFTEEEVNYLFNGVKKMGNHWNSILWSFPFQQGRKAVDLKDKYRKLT

Measured: binding result

B1: dsDNA_telo_8-mer (TTAGGG)8 (dsDNA)
DNA 1: TTAGGGTTAGGGTTAGGGTTAGGGTTAGGGTTAGGGTTAGGGTTAGGG
DNA 2: CCCTAACCCTAACCCTAACCCTAACCCTAACCCTAACCCTAACCCTAA
no binding: all assays above
